Laboratory results published in paper PMC11569197.

What was measured:
[1] = target: cone-specific G-protein transducin alpha subunit employed as a Gtα/Giα chimera, non-myristoylated (European robin); test: SPR; Biacore 3000, CM5 chip, amine coupling; Gtα/Giα immobilised, ErCry4a 5-100 nM (and 500 nM) injected; global fit with a two-state-reaction model; 10 mM HEPES/NaOH pH 7.4, 150 mM NaCl, 10 mM MgCl2, 0.005% Tween-20, 3.4 mM EDTA
[2] = target: Gtα-EYFP (cone transducin alpha subunit, GNAT2, with C-terminal EYFP) (European robin); test: FRET or BRET; acceptor photobleaching FRET in transiently transfected, fixed QNR/K2 quail neuroretina cells; donor mTurquoise on ErCry4a, acceptor EYFP; confocal microscope, FRET efficiency (Dpost - Dpre)/Dpost

Kd [1] [nM] | ka1 (two-state-reaction model) [1] [M⁻¹ s⁻¹] | kd1 (two-state-reaction model) [1] [s⁻¹] | mean FRET efficiency [2] [%] | Substance
19.8 | 221000 | 0.00438 | – | European robin cryptochrome 4a (ErCry4a), purified recombinant (natural protein)
– | – | – | 24.5 | mTurquoise-ErCry4a (N-terminally tagged ErCry4a) (natural protein)
